± gives the uncertainty stated by the source.

A short description of the data set: amyloid nucleation score (Sup35N fusion, yeast selection) (log enrichment); library NNK1; higher = more nucleation; inactive = no reads after selection. In a few lines:
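Peptides of 20 random codons, each fused to Sup35N, were expressed in psi-negative yeast. Cells were induced with 100 μM copper sulfate for 24 hours and grown 7 days at 30°C on medium lacking adenine and uracil, and plasmid inserts before and after selection were Illumina-sequenced. Nucleation scores are DiMSum log enrichments of output over input reads, centred on the mode score of non-aggregating sequences, and sequences under 100 input reads were excluded.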
In turn, QYYFLLYAKSDLSKWEHHQD returned an amyloid nucleation score of -0.282 ± 0.97.

RAAYACWHFTLYNFSLIVTT showed an amyloid nucleation score of 1.83 ± 0.57.

RAGCPDVGRRLSCSRSVLPR: the amyloid nucleation score amounted to 0.789 ± 0.27.

RAKICFVRQGRGFIMHRLLA showed an amyloid nucleation score of 1.39 ± 0.23.

Take RAKTWDGRGAKQP: the amyloid nucleation score was determined as 1.22 ± 0.64.

RALSH had an amyloid nucleation score of -0.158 ± 0.74.

In turn, RARCAVGS returned an amyloid nucleation score of -0.396 ± 1.5.

In the case of RASFIELVTEKRHPSHTPGK, the amyloid nucleation score is -0.473 ± 0.39.

In turn, RAVLSTSELGLPTV yielded an amyloid nucleation score of 0.27 ± 0.89.

Substance RCCALTYPLFKHLG came in with an amyloid nucleation score of 0.573 ± 0.43.

Substance RCDLARVLLMGRWLGPNAVW displayed an amyloid nucleation score of -0.359 ± 0.67.

Take RCDYVEWIWYPCYRRNGVCR: the amyloid nucleation score was determined as 0.171 ± 0.39.

Consider RCFECEGALV, for which the amyloid nucleation score was -0.08 ± 1.1.

RCFMFSTGEALTNEDRSLRR showed an amyloid nucleation score of 1.12 ± 0.6.

In the case of RCKLLIIVIRKDTCLKYCGH, the amyloid nucleation score turned out to be 0.308 ± 0.32.

For the substance RCLEGLSIMLNDFLPPCGP, the amyloid nucleation score is -0.224 ± 0.71.

In the case of RCMLGLLNFIESIHGGR, the amyloid nucleation score was found to be 4.89 ± 0.095.

RCMSDFRPVWVYVS: the amyloid nucleation score was -0.222 ± 0.86.

Substance RCPYSYHGYSVNNWGSAWT came in with an amyloid nucleation score of 0.487 ± 0.54.

Take RCRAVELLEVRRLQMRSGHH: the amyloid nucleation score was -0.295 ± 0.34.

Take RCSFFSYCVNDAS: the amyloid nucleation score was 3.55 ± 0.12.

In the case of RCTLISRHDWGYANWMRLLL, the amyloid nucleation score is 4.81 ± 0.077.

RDKMDDWFQRHMESGTRTRE: the amyloid nucleation score worked out at 0.053 ± 0.23.

In turn, RDSITITVNCT showed an amyloid nucleation score of 2.44 ± 0.078.

RDSLSSVSA yielded an amyloid nucleation score of -0.382 ± 0.62.

RDSRDLMCFVRLPLDRISK registered an amyloid nucleation score of -0.101 ± 0.39.

In turn, RDVAMESRVSGYVGVCGSYR returned an amyloid nucleation score of -0.71 ± 1.2.

Turning to RDVDRGMHQMAPSTGVRLVL, the amyloid nucleation score came out at 2.81 ± 0.14.

Consider RDYSFGGLMPGCDGEHIVS, for which the amyloid nucleation score was -0.138 ± 0.4.

In the case of REPVCICLIAAYGRAKPPTG, the amyloid nucleation score is 0.382 ± 0.84.

REWIYLVVETPCYFVDDVMD showed an amyloid nucleation score of -0.71 ± 0.52.

RFCLAVGLRMGYFLGCSDFR: the amyloid nucleation score was -0.45 ± 1.4.

For RFEIIYGWSTYVLDAGVSFQ, the amyloid nucleation score came to 1.21 ± 0.13.

RFFMTHSYELYLEFRGAARR had an amyloid nucleation score of 1.28 ± 0.42.

In turn, RFLPVLVSIINKRQGGYDF yielded an amyloid nucleation score of 0.064 ± 0.46.

Substance RFMYAISSVTRYPMWPGMMQ registered an amyloid nucleation score of 2.45 ± 0.18.

In turn, RFNTEKRLALNNNMPLRWFS registered an amyloid nucleation score of -0.125 ± 1.7.

Substance RFQVPLCIPLINC gave an amyloid nucleation score of 0.886 ± 0.74.

Consider RFRSCSYLVNRSSMLAATDG, for which the amyloid nucleation score entry was “inactive”.

With RFWSAL, the amyloid nucleation score was -0.148 ± 0.92.

Regarding RFWSIDRCAWSLMGGILRYG, the amyloid nucleation score is -0.01 ± 0.43.

Substance RFYMCRLEGVPFES yielded an amyloid nucleation score of 0.58 ± 0.79.

For the substance RGAASKDLLMV, the amyloid nucleation score amounted to 0.082 ± 0.86.

As for RGEKHVRVYRVMSV, the amyloid nucleation score was -0.192 ± 0.49.

As to RGGSYMFRLYCVFLYGCYFG, the amyloid nucleation score is -0.577 ± 0.72.

RGIYWVSFVLSGRIIGWMVG had an amyloid nucleation score of 0.275 ± 0.8.

The substance RGLLYS gave an amyloid nucleation score of 0.768 ± 0.75.

As for RGLTYVRVVGLARIGSACSV, the amyloid nucleation score is 0.335 ± 0.53.

For RGMGVAWAYLSSNTRPRRLN, the amyloid nucleation score worked out at 0.792 ± 0.76.

Consider RGMIFLHQASCLHRDN, for which the amyloid nucleation score was -0.836 ± 0.61.

Take RGNLESFVLGNIRVTNP: the amyloid nucleation score was 1.01 ± 0.18.

Substance RGSYHRLWCI had an amyloid nucleation score of 0.114 ± 0.72.

Consider RGTDLSSYTSFVC, for which the amyloid nucleation score came out at 0.28 ± 0.41.

RHFEDYMELSSLSLGMGEG registered an amyloid nucleation score of -0.394 ± 0.63.

As for RHIFIRGIVYCCVSTFRFPS, the amyloid nucleation score was -0.218 ± 0.27.

On to RHMRSHENVGKFWRLSCFVN, for which the amyloid nucleation score was -0.36 ± 0.51.

In turn, RHVAYRSLRFSGCTP gave an amyloid nucleation score of 0.416 ± 0.76.

Substance RHVSPFNSS registered an amyloid nucleation score of -0.222 ± 0.31.

RIASSRVFFAFFRSLYMSGW yielded an amyloid nucleation score of 0.995 ± 0.47.

Consider RIDTFTWSCKCLPPSSIWLL, for which the amyloid nucleation score came to 0.009 ± 0.76.

In turn, RIDYWVIPGAWNSTCWRYTT gave an amyloid nucleation score of 1.49 ± 0.45.

On to RIFNIYNGVQRRNFYYFYSC, for which the amyloid nucleation score came to 7.532 ± 0.05.

Substance RIGFPVRYEEFALRFIYILE yielded an amyloid nucleation score of -0.261 ± 0.72.

RIKFDTKMRTVQCSCGSLHS showed an amyloid nucleation score of 2.78 ± 0.18.

Consider RILYMYWVFMVLFMTPRCLD, for which the amyloid nucleation score was -0.099 ± 0.48.

RITHRFVFTRAFTNGRALLR returned an amyloid nucleation score of 0.405 ± 0.27.

For the substance RIVYLCSSGCVRKCWLLCSG, the amyloid nucleation score was 2.29 ± 0.24.

With RIWLTFTSFIYDNVDRILVQ, the amyloid nucleation score is -0.2 ± 0.67.

Consider RIWPQIVCDIDIRP, for which the amyloid nucleation score was -0.444 ± 0.52.

The substance RKASYLSAVNMQFRESFLFW gave an amyloid nucleation score of -0.209 ± 0.28.

Regarding RKFMDYSLKFSWRGVIPVMR, the amyloid nucleation score was -1.83 ± 1.8.

In turn, RKFRGLVKLL yielded an amyloid nucleation score of 1.28 ± 0.85.

Turning to RKLKSCSTNGHIG, the amyloid nucleation score is 6.02 ± 0.063.

Turning to RKNAFDFDAS, the amyloid nucleation score is -0.099 ± 0.42.

As to RKNFMGSEFVLDNILCLFLL, the amyloid nucleation score was determined as 7.583 ± 0.055.

For the substance RKSFLTLVNFYYLFRC, the amyloid nucleation score amounted to 3.1 ± 0.12.

For the substance RKYKRTVMDMKCYWQGVWSV, the amyloid nucleation score is 0.136 ± 0.5.

Substance RLDISSYSLFGINQVWA showed an amyloid nucleation score of 2.63 ± 0.17.

Substance RLGAGCSPSLVLS displayed an amyloid nucleation score of 0.197 ± 0.56.

RLKGSPHVLL showed an amyloid nucleation score of -1.69 ± 1.2.

For the substance RLLVFQSCKFVRGTSLCLVT, the amyloid nucleation score was determined as 3.66 ± 0.069.

Take RLRDIG: the amyloid nucleation score is -0.684 ± 1.2.

As for RLSGGLADHNIFNFRIT, the amyloid nucleation score worked out at 0.805 ± 0.76.

Substance RLSHRM yielded an amyloid nucleation score of -0.994 ± 0.54.

Substance RLSRKISSWLTRYIIAWSWS displayed an amyloid nucleation score of -0.713 ± 0.61.

Substance RLSSSIYAFSDIHCGMSEAQ gave an amyloid nucleation score of 0.168 ± 0.26.

RLTDRHLLWIIMQELNGFLV had an amyloid nucleation score of -1.09 ± 2.7.

For RLWIVPLGLWCLRHRVCCRP, the amyloid nucleation score was -0.246 ± 0.65.

RMPNGTWSIGRHLVD gave an amyloid nucleation score of 0.384 ± 0.79.

RMQVKDLVDQVKTTFKCTHT came in with an amyloid nucleation score of 0.303 ± 0.37.

RNFLIVLPSVYRGPFI displayed an amyloid nucleation score of 5.36 ± 0.064.

Substance RNFWF came in with an amyloid nucleation score of 0.078 ± 0.34.

Regarding RNIPGFVETVINGSCGALLT, the amyloid nucleation score was 0.636 ± 0.52.

For RNKSGSGYKLFVSGELAQQM, the amyloid nucleation score result was “inactive”.

Turning to RNLRY, the amyloid nucleation score was determined as 0.184 ± 1.1.

As for RNMLELSFWCYEMKNSSSWS, the amyloid nucleation score is 1.15 ± 0.24.

For RNQVRDSRVISGPNFSSMKK, the amyloid nucleation score is -0.51 ± 0.71.

The substance RNRNCFSRYCRLIV displayed an amyloid nucleation score of -1.45 ± 0.56.

In turn, RNRYTFSIRLVQTDYCFLGM yielded an amyloid nucleation score of 1.63 ± 0.19.

Turning to RNSDSNTVGNRSFWLLGIL, the amyloid nucleation score is 0.389 ± 0.3.

As to RNSRICSFS, the amyloid nucleation score came to 0.59 ± 0.35.

Regarding RNTFHFNNMALPVLQT, the amyloid nucleation score was -1.23 ± 0.77.

Turning to RNYPTRPYRGVINHLGFCRV, the amyloid nucleation score is -1.06 ± 0.57.

In turn, RPFRLYECCCDGELFLN registered an amyloid nucleation score of -0.997 ± 0.51.

(Values after the supplement of paper PMC12042874.)
